Source: patent US20240327477A1, “COMPOSITIONS AND METHODS FOR THE TREATMENT OF TDP-43 PROTEINOPATHIES” (SOLA BIOSCIENCES LLC, priority 2020, published 2024)
“Also recorded” adds a separate entry of the source. Blank lines part the entries; values can stand above or below the molecule they belong to. Where a SMILES comes first, the peptide text is derived from it. The star is where a group is joined. Cbz = O=C(OCc1ccccc1)*

Assays:
GFP-TDP43CTF [1] = target: T1, GFP-TDP43CTF (Homo sapiens, UniProt Q13148); assay: Fluorescence microscopy of GFP-TDP43CTF aggregation (GFP foci) in transfected HEK293 cells; format: cell-based; settings: for aggregation of GFP-TDP43CTF reporter in cells (in words): HEK293 cells, vs reporter alone; for reduction of TDP-43 aggregation: GFP-TDP43CTF reporter, vs reporter alone (FIG. 8/9, Table 12)
T1 construct: expressed in transfected cells; host or cells: HEK293
Description: (§1) Expression vector plasmids encoding various protein constructs were transfected into HEK293 cells with Lipofectamine 3000 transfection reagent (Thermo Fisher Scientific). Cell lysates were analyzed for expressed proteins using immunoblot assays. Samples of culture media were centrifuged to remove debris prior to analysis. Cells were lysed in a lysis buffer (10 mM Tris-HCl, pH 8.0, 150 mM NaCl, 10 mM EDTA, 2% SDS) containing 2 mM PMSF and protease cocktail (Complete Protease Inhibitor Cocktail; Sigma). After brief sonication, the samples were analyzed for expressed proteins using immunoblot assays. For immunoblot analysis, samples were boiled in an SDS-sample buffer and run on polyacrylamide electrophoresis. Thereafter, the separated protein bands were transferred to a PVDF membrane.
(§2) In some instances, aggregation of TDP-43 (full-length of C-terminal fragment) GFP reporter constructs (described below) were detected in vivo using fluorescence microscopy. Cultured cells expressing the reporter constructs as well as the fusion protein comprising the J domain and TDP-43-binding domain were washed with PBS and fixed with 4% paraformaldehyde in PBS for 5 minutes. After three 5-min washes with PBS, nuclear DNA was stained with DAPI. Percentage of cells containing TDP-43 (GFP foci) in transfected cells was counted.
We first investigated whether the fusion molecule of the present invention targeting TDP-43 ameliorates its aggregation in cultured cells. To this end, we generated GFP-based reporter constructs GFP-TDP43 and GFP-TDP43, wherein GFP was fused at its C-terminus to either the full-length human TDP-43 protein or the C-terminal fragment TDP-43 which is known to form cytoplasmic aggregation and cytotoxicity (See Table 8 below). HEK293 cells were cultured and transfected with the plasmids encoding the full-length TDP43 or the C-terminal fragment of TDP43, containing the C-terminal 207 amino acids TDP-43 (amino acids 208-414 of human TDP-43) as a GFP fusion [GFP-TDP43FL (SEQ ID NO: 101) or GFP-TDP43CTF (SEQ ID NO: 102)].

GFP-TDP43FL [2] = target: T2, GFP-TDP43FL (Homo sapiens, UniProt Q13148); assay: Fluorescence microscopy of GFP-TDP43FL aggregation (GFP foci) in transfected HEK293 cells; format: cell-based; settings: vs negative controls and construct 2 (FIG. 7)
T2 construct: expressed in transfected cells; host or cells: HEK293
Description: as §1
as §2, with “counted. […]” for “counted.”

GFP-TDP43CTF [3] = assay: Bafilomycin A1 or MG132 treatment of cells co-expressing reporter and Construct 3, immunoblot; format: cell-based, human; settings: immunoblot (FIG. 10)
Description: Cells were transfected either with the reporter construct GFP-TDP43FL (lane 2) or GFP-TDP43CTF (lanes 3-8), and co-transfected with nucleic acids encoding Construct 3 (lanes 4-8).
We next investigated the mechanism of the fusion protein in reducing aggregation. HEK293 cells were transfected with the GFP-TDP43FL or GFP-TDP43CTF reporter construct, either alone or with Construct 3 (JB1-scFv (3B12A)), as well as with BFA (Bafilomycin A1, an inhibitor of the late phase of autophagy) or MG132 (proteasome inhibitor).

GFP-TDP43CTF [4] = target: T1, GFP-TDP43CTF; assay: Immunoblot (anti-GFP) of reporter level in cell extracts; format: cell-based; settings: vs negative control
Description: as §1
(§3) Expressed proteins were detected using a chemiluminescent signal. Briefly, blots were reacted with a primary antibody capable of binding the particular epitope (e.g., GFP). After rinsing away the unreacted primary antibody, a secondary, enzyme-linked antibody (e.g., HRP-linked anti-lgG antibody) was allowed to react with the primary antibody molecules bound to the blots. Following rinsing, a chemiluminescent reagent was added, and the resultant chemiluminescent signals in the blots were captured on X-ray film.

GFP-TDP43FL [5] = target: T2, GFP-TDP43FL; assay: as above; format: cell-based; settings: cell extracts (FIG. 5)
Description: as §1, §3

[6] = format: in vivo, mouse; settings: C57BL/6J mice, AAV rh10 vector encoding Construct 3 vs control, three weeks after ICV or IT injection; data not shown
human TDP-43ΔNLS = target: T3, human TDP-43ΔNLS (Homo sapiens, UniProt Q13148, K82A/K84A/R83A); assay: Efficacy in rNLS8 (NEFH-tTA x hTDP-43ΔNLS) mouse model of ALS, ICV AAV rh10; format: in vivo; settings: rNLS8 mice (Dox −)
T3 construct: expressed in transfected cells; host or cells: transgene in NEFH-tTA x hTDP-43ΔNLS bigenic mice (rNLS mice), in vivo
Description: Vectors prepared above were tested on TDP-43-asociated pathologies of a novel AAV NEFH-tTA×hTDP-43ΔNLS bigenic mice (rNLS mice). This model has a doxycycline (DOX)-repressible construct expressing pathogenic TDP-43 (human TDP-43ΔNLS). Upon removal of DOX, TDP-43ΔNLS expression causes a rapid and progressive deterioration of the animals, causing severe weight loss and, generally within 6-8 weeks, death. We tested the efficacy of Construct 3 (JB1-scFv (3B12A), SEQ ID NO: 80) in slowing the progression of TDP-43ΔNLS-mediated pathology. AAV rh10 containing control or Construct 3 were administered ICV unilaterally at P1/P2 at a volume of 2 ul (maximum 4 ul) in different groups as shown below in Table 17. Except for the control group 1, DOX removal occurred at week 5. Control mice in group
Body weight was measured twice weekly after weaning. After completion of testing, samples were collected from all surviving mice. Whole brains were collected and split into 2 hemispheres. One hemisphere were weighed and frozen on dry ice. The second hemisphere were post fixed in 4% PFA for histology assessments.

GFP-TDP43CTF [7] = target: T1, GFP-TDP43CTF; assay: Fractionation assay: soluble and insoluble fractions, immunoblot; format: cell-based; settings: GFP-TDP43CTF reporter, HEK293 cells
Description: Transfected HEK293 cells are homogenized in RIPA buffer (50 mM Tris, pH7.5, 150 mM NaCl, 0.1% NP-40, 0.5% sodium deoxycholate, 0.1% SDS) supplemented with protease inhibitor cocktail, 2 mM PMSF, 10 mM NaF, and 2 mM Na3VO4. After brief sonication, protein concentration is measured by BCA assay kit (Pierce). The equal protein amount is spun down by centrifugation at 16,000×g for 30 minutes at 4° C. to fractionate into soluble fraction (supernatant) and insoluble fraction (pellet). The insoluble fraction is further solubilized in SDS lysis buffer (10 mM Tris, pH8.0, 150 mM NaCl, 2% SDS). Both soluble and insoluble fractions were applied to SDS-PAGE under reducing condition, followed by immunoblotting assay with anti-GFP antibody.

aggregation of GFP-TDP43CTF reporter in cells (in words) (GFP-TDP43CTF [1]): dramatically reduced
aggregation level in cells expressing GFP-TDP43FL reporter (in words) (GFP-TDP43FL [2]): modest reduction
Molecule: Construct 5: Reversed arrangement of J domain and TDP-43 from Construct 3

reduction of TDP-43 aggregation (GFP-TDP43CTF [1]): ~71%
amount of GFP-TDP43CTF reporter protein, anti-GFP immunoblot (in words) (GFP-TDP43CTF [4]): lower levels
Molecule: Construct 14: J domain from DnaJB1 fused to two tandem copies of QBP1

reduction of TDP-43 aggregation (GFP-TDP43CTF [1]): ~43%
amount of GFP-TDP43CTF reporter protein, anti-GFP immunoblot (in words) (GFP-TDP43CTF [4]): lower levels
Molecule: Construct 9: Full-length J protein control [reference compound]

More lines, now with the values behind:

Molecule: CC(C)C[C@@H](C=O)NC(=O)[C@H](CC(C)C)NC(=O)[C@H](CC(C)C)NC(=O)OCc1ccccc1 [MG132] (Cbz-Leu-Leu-Leu-aldehyde)
level of GFP-TDP43CTF reporter in cells co-expressing Construct 3 after MG132 treatment (GFP-TDP43CTF [3]; MG132 0.1 μM or 1.0 μM): little to no effect

Molecule: Construct 3: DnaJB1 J domain fused to scFv(3B12A)
reduction of TDP-43 aggregation (GFP-TDP43CTF [1]): > 90%
aggregation of GFP-TDP43CTF reporter in cells (in words) (GFP-TDP43CTF [1]): substantially reduced aggregation
aggregation of GFP-TDP43CTF reporter in cells (in words) (GFP-TDP43CTF [1]; listed as construct 3): dramatically reduced
aggregation level in cells expressing GFP-TDP43FL reporter (in words) (GFP-TDP43FL [2]): modest reduction
amount of GFP-TDP43CTF reporter protein, anti-GFP immunoblot (in words) (GFP-TDP43CTF [4]): lower levels
amount of GFP-TDP43CTF reporter protein, anti-GFP immunoblot (in words) (GFP-TDP43CTF [4]; listed as construct 3): marked reduction
levels of the full-length reporter construct (GFP-TDP43FL), anti-GFP immunoblot (in words) (GFP-TDP43FL [5]): No differences
body weight [6]: No difference in body weight
survival at week 10 (human TDP-43ΔNLS; AAV rh10 6 × 10^10 vg ICV at P1, DOX removal at week 5 (FIG. 16C)): 100%
body weight compared with Group 2 (AAV control, DOX off) (human TDP-43ΔNLS; males, AAV rh10 6 × 10^10 vg ICV at P1, DOX removal at week 5 (FIG. 16B)): statistically significant weight increase

Molecule: Construct 4: Same as construct 3, with a P33Q mutation in the conserved HPD motif
aggregation of GFP-TDP43CTF reporter in cells (in words) (GFP-TDP43CTF [1]): did not reduce aggregation
levels of the full-length reporter construct (GFP-TDP43FL), anti-GFP immunoblot (in words) (GFP-TDP43FL [5]): No differences

Molecule: Construct 20: Construct 3 containing the dimerization domain from human DnaJA1
ability to reduce aggregation of GFP-TDP43CTF (in words, with Table 15) (GFP-TDP43CTF [7]): potent reduction

Molecule: CO/C1=C\C(C)=C\[C@@H](C)[C@@H](O)[C@@H](C)C/C(C)=C/C=C/[C@H](OC)[C@@H]([C@@H](C)[C@@H](O)[C@H](C)[C@@]2(O)C[C@@H](O)[C@H](C)[C@@H](C(C)C)O2)OC1=O [BFA, Bafilomycin A1]
level of GFP-TDP43CTF reporter in cells co-expressing Construct 3 after BFA treatment (GFP-TDP43CTF [3]; BFA 0.01 μM (10 nM) or 0.1 μM (100 nM)): higher levels; also recorded: reappearance of pathogenic TDP43 in a dose dependent manner
